The source of these data is publication PMC7052167, “TCR–pMHC bond conformation controls TCR ligand discrimination” (Cellular and Molecular Immunology, 2019).

For one assay, the system named is 5C.C7 TCR. The assay is described as follows: Single-molecule FRET (smFRET) measurement of TCR–pMHC bond distance on lipid bilayer (TIRF). The following applies: 1 µM LA, 1 h pretreatment and continuous presence, smFRET 37 °C, K5, MCC, 102S, 339–1295 trajectories per histogram. The format is cell-based, mouse. The procedure: We next performed Cy3/Cy5 single-molecule FRET (smFRET) on a lipid bilayer to measure the conformations of single TCR–pMHC bonds using TIRF microscopy (Fig. 2 and Fig. S1b). TCR–pMHC bond formation at live T-cell membrane brought the donor Cy3 and the acceptor Cy5 into close enough proximity to produce smFRET (Figs. 1a and 2a). The fluorescent intensities of Cy3 and Cy5 were simultaneously recorded in real time (Fig. 2b, top panel, and Fig. S4a), and the EFRET values were calculated based on the fluorescence intensities of the donor Cy3 and the acceptor Cy5 (Fig. 2b, bottom panel). […] By plotting the EFRET histogram and fitting it with a Gaussian function, we determined the most probale EFRET value of 0.7, corresponding to a 47 ± 3 Å distance between the 5C.C7 TCR and the super agonist K5 pMHC in a representative smFRET trajectory (Fig. 2c). […] We further measured the average TCR–pMHC bond distances using ensemble FRET on both a lipid bilayer and a glass surface (Figs. S4b and S7), and the results confirmed the single-bond measurements obtained using smFRET (Fig. 2d).
For the FRET measurements between TCRs and pMHCs on the cell surface (FRET1), we generated a peptide-exchangeable CLIP-IE^k molecule.[41] […] The protein fractions were analyzed by SDS-PAGE. […]

Assay [1] deals with TCR microclusters of 5C.C7 T cells. Briefly: TCR microcluster formation at the T-cell synapse. The following applies: 1 µM LA. In kind it is cell-based, mouse. An excerpt: TCRs form microclusters upon antigen stimulation (Movie S4). To measure the conformational dynamics of single TCR–pMHC bonds without possible interference from TCR microclusters, we used latrunculin A (LA) to prevent the formation of TCR microclusters during smFRET measurements. […] We then performed smFRET in the absence of TCR microclusters.
To test whether TCR–CD3ζ conformational changes were dependent on TCR signaling, we used an Src kinase inhibitor PP2[27] to block TCR signaling. Consistent with the results of a previous study,[21] […] To reveal the role of TCR signaling in TCR–CD3ζ conformational changes, we plotted the time trajectories of the normalized intramolecular TCR–CD3ζ distances against the stimulation time in the absence and presence of PP2 (Fig. 4d). In the absence of PP2, the intracellular CD3ζ chain quickly separated from the TCR extracellular domain upon TCR engagement with the K5 pMHC and then reached a stable, fully extended TCR–CD3ζ conformation.
To measure the TCR–pMHC bond distance by smFRET in the absence of CD4 binding, T cells were incubated with 10 μg/mL anti-CD4 antibody (GK 1.5, Biolegend) and 0.027 µg/µL of Cy5-J1 scFV for 30 min at 4 °C. After three washes, the cells were added to a lipid bilayer containing Cy3-pMHCs, and smFRET assays were performed in the continuous presence of 10 μg/mL anti-CD4 antibody at 37 °C using TIRF microscopy. […]

Assay [2] addresses 5C.C7 TCR (mouse (5C.C7 TCR transgenic mice)). Briefly: FRET or BRET; ensemble Cy3/Cy5 FRET1 at the synapse; His-tagged Cy3-pMHC on a lipid bilayer (95 molecules/um^2) or a PEG-Ni2+ glass surface with ICAM-1 and B7-1; TCR on live primary 5C.C7 T cells labelled with scFv J1-Cy5; 37 °C. For orientation: In BRET a luciferase serves as donor, and the signal depends on an acceptor being close.

Assay [3] has the same target. Briefly: 2D micropipette adhesion frequency assay; biotinylated pMHC monomers on human RBCs by biotin–streptavidin; 5C.C7 T-cell blasts pre-incubated with 10 ug/mL anti-CD4 (GK 1.5); contact times 0.25-5 s, 50 cycles each; 25 °C (legend of Fig. 5); effective 2D constants from a probabilistic kinetic model.
The target is the same in assay [4].

As to `C/C1=C/C(=O)O[C@@H]2C[C@@H](CC[C@H](C)/C=C\C=C\CC1)O[C@@](O)([C@@H]1CSC(=O)N1)C2` [latrunculin A], the “effect on TCR–pMHC bond distances (latrunculin A)” value is “very close to those measured in the presence of TCR microclusters” in the assay on 5C.C7 TCR and “no differences in the TCR–pMHC bond distances” with 5C.C7 TCR (listed as LA). Moreover, the “effect of LA on TCR microcluster formation” value in assay [1] is on record as “no TCR microclusters were observed”.

In assay [2], “K5(C)-Cy3 peptide on His-tagged IE^k (from UniProt P04230 30-225) (peptide-MHC)” displayed an average synaptic E FRET1 of 0.79.

Consider “MCC(C)-Cy3 peptide on His-tagged IE^k (from UniProt P04230 30-225) (peptide-MHC)”, for which the average synaptic E FRET1 in assay [2] came to 0.54.

In turn, “T102S(C)-Cy3 peptide on His-tagged IE^k (from UniProt P04230 30-225) (peptide-MHC)” returned an average synaptic E FRET1 in assay [2] of 0.29.

By koff is commonly meant the rate constant with which the complex falls apart. A lower koff goes with a long-lived complex. In assay [3], “biotinylated monomeric IE^k covalently complexed with the 102S peptide (from UniProt P04230 30-225) (peptide-MHC)” yielded an AcKa (effective 2D affinity) of 1.6e-05 µm^4, an AcKon (effective 2D on-rate) of 2.4e-06 µm^4 s^−1 and a koff of 1.5 s⁻¹. This compound also gave a separation between the TCR and CD3ζ after TCR–pMHC binding (transmembrane GFP/Alexa568 FRET2, lipid bilayer, 37 °C) in assay [4] of 5 Å.

Turning to “biotinylated monomeric IE^k covalently complexed with the K5 peptide (from UniProt P04230 30-225) (peptide-MHC)”, in assay [3], the AcKa (effective 2D affinity) was 0.00037 µm^4, the AcKon (effective 2D on-rate) is 3.6e-05 µm^4 s^−1 and the koff stood at 1 s⁻¹. Besides, the separation between the TCR and CD3ζ after TCR–pMHC binding (transmembrane GFP/Alexa568 FRET2, lipid bilayer, 37 °C) in assay [4] was 15 Å.

In the case of “biotinylated monomeric IE^k covalently complexed with the MCC peptide (from UniProt P04230 30-225) (peptide-MHC)”, in assay [3], the AcKa (effective 2D affinity) stood at 0.00015 µm^4, the AcKon (effective 2D on-rate) is 2e-05 µm^4 s^−1 and the koff came to 1.3 s⁻¹. Moreover, the separation between the TCR and CD3ζ after TCR–pMHC binding (transmembrane GFP/Alexa568 FRET2, lipid bilayer, 37 °C) in assay [4] stood at 10 Å.
